Our source for the percent dimer and stoichiometry N values is publication PMC9210659.

The experiment has as its target C16-Pks13(S1533A) (Pks13(S1533A) loaded with a C16 chain on the AT catalytic serine) (Mycobacterium tuberculosis H37Rv) (UniProt I6X8D2). The experiment can be described thus: SEC + other: SAXS.

Turning to “C16-Pks13(S1533A) (Pks13(S1533A) loaded with a C16 chain on the AT catalytic serine) (from UniProt I6X8D2 1-1733) (enzyme)”, the percent dimer is 60% and the stoichiometry N came to 2.
